From the RNAGym collection of RNA variant scans (doi:10.7554/elife.80360)

B1: Hairpin Ribozyme (parent)
chain: GUCCUCUUUCACGUGCGCGUGAAAGAGAGAAGUGAACCAGAGAAACACACGUUGUGGUAUAUUACCUGGUA

Variants of: B1
Assay: self-cleavage, relative activity (ratio to wild type); higher = more cleavage; co-transcriptional

Variant | self-cleavage
U5A A43C | 0.113
U5A A43G | 0.0784
C4G G56A | 0.249
C4G G56U | 0.148
C4G G19C | 0.194
C4A U5A | 0.125
U5A C38A | 0.142
U5G A39G | 0.0943
C4U G17A | 0.263
C4G G69C | 0.193
C4G A45U | 0.112
U5G A41C | 0.571
U5G A41U | 0.607
U5G A41G | 0.129
C4A G56U | 0.166
C4G G32A | 0.154
C4U U8G | 0.204
C4A U70A | 0.25
C4A U70C | 0.119
C4G A11C | 0.113
C4G A11U | 0.232
U5A A59U | 0.153
U5C A71U | 0.564
C4U C37A | 0.158

Variant | self-cleavage
C4G A59U | 0.212
C4G A59C | 0.15
C4G A59G | 0.169
C4G U60A | 0.105
C4G U60G | 0.147
U5G A45G | 0.121
U5A G68U | 0.154
U5A G40U | 0.101
C4U G21U | 0.222
C4U G21C | 0.328
U5G A28U | 0.242
U5G A28C | 0.0791
C4G G34U | 0.977
C4G G34A | 0.5
C4U A45C | 0.122
C4U A45G | 0.199
U5A A47C | 0.187
U5A A47U | 0.0694
U5A A47G | 0.102
U5C C50U | 0.17
U5C U58C | 0.496
U5C U58A | 0.21
U5A | 0.368
U5C | 0.648

Variant | self-cleavage
U5G | 0.324
C4U G19C | 0.219
C4U G19A | 0.327
C4U G56A | 0.161
C4A U67G | 0.144
C4A U67A | 0.155
U5A A64U | 0.133
U5A A64C | 0.151
U5A C10U | 0.333
U5C C6G | 0.138
U5G A26U | 0.51
U5G A26G | 0.286
U5C A39G | 0.192
C4U U63G | 0.103
U5A A61C | 0.088
C4G C12G | 0.216
C4U G40C | 0.13
U5A U7G | 0.253
C4A G32C | 0.155
C4A G32U | 0.168
C4A G32A | 0.195
U5C G69A | 0.158
U5C U63G | 0.0578
C4G U7C | 0.15

Variant | self-cleavage
C4G U7A | 0.143
C4G U8C | 0.0934
C4G A30G | 0.069
C4U U67A | 0.121
C4G G40C | 0.164
C4G C48A | 0.151
C4A U52G | 0.22
C4A U52C | 0.182
U5C U7A | 0.395
U5C U7G | 0.365
C4G A22U | 0.196
C4G A22G | 0.326
C4U C18A | 0.4
C4G A26C | 0.259
C4U A49C | 0.259
C4U A49U | 0.128
U5C G42C | 0.327
U5C G42U | 0.164
U5C A36C | 0.576
U5C A36G | 0.502
U5C A41G | 0.569
U5C A41U | 1.06
C4G A43C | 0.121
C4G A43U | 0.053

Variant | self-cleavage
C4G A31G | 0.238
C4A G68A | 0.17
C4A G68C | 0.141
U5G A23G | 0.372
U5G A49U | 0.127
C4G A23U | 0.147
U5G A61C | 0.112
C4G A36G | 0.248
C4G C16U | 0.194
C4G C16A | 0.304
U5A G15U | 0.495
U5A G15A | 0.388
U5A A41U | 0.818
U5G A47G | 0.123
C4U C38A | 0.13
C4U C38G | 0.0751
U5A A71C | 0.884
U5A A45U | 0.141
U5A A45G | 0.0727
U5A U9C | 0.179
C4U A35U | 0.199
U5A A39U | 0.0927
U5A A39G | 0.101
U5G A43U | 0.155

Variant | self-cleavage
U5G A43C | 0.269
C4U U33A | 0.283
C4U U33G | 0.0889
U5C C10G | 0.373
C4G U67C | 0.0875
C4U A71G | 0.426
U5A U55C | 0.157
U5A U33C | 0.0952
C4A U55G | 0.107
U5A A26C | 0.491
C4U A59C | 0.126
U5A G42A | 0.217
C4U C65U | 0.175
C4G | 0.225
C4U | 0.371
C4A G19A | 0.174
U5A A49U | 0.0811
U5A A49C | 0.124
C4U C6G | 0.0904
C4U C6U | 0.192
C4U C6A | 0.0821
C4A U62C | 0.118
C4A U62A | 0.167
U5G A31U | 0.0772

Variant | self-cleavage
C4U C50U | 0.213
C4U C50A | 0.203
C4G G27C | 0.653
C4A G21U | 0.178
C4A G21C | 0.175
U5C A44C | 0.0386
C4G C50G | 0.0987
U5A C48G | 0.0819
C4A U33G | 0.234
C4A G25U | 0.214
U5G A36C | 0.38
U5C G54A | 0.467
U5C G54C | 0.169
U5C G54U | 0.492
C4G C6A | 0.195
C4U G57A | 0.155
C4U G57C | 0.226
C4U G57U | 0.161
C4U U60A | 0.199
C4U U60C | 0.48
U5G A44U | 0.093
C4U U9G | 0.178
U5G A30G | 0.144
U5A A31U | 0.14

Variant | self-cleavage
U5A G17A | 0.435
U5A G17C | 0.204
C4G C46U | 0.235
C4G C46A | 0.102
U5C U70C | 0.277
C4G G13C | 0.178
U5A A24C | 0.314
U5A A24G | 0.381
U5C C38A | 0.168
U5C G15C | 0.469
U5C G15U | 0.574
U5A U20A | 0.315
U5A C66G | 0.176
U5A C66U | 0.153
U5C G32A | 0.162
C4U A43G | 0.141
U5C U62G | 0.159
C4U U7A | 0.296
U5A G27C | 0.187
U5A G27A | 0.179
U5A G27U | 0.116
C4G C65A | 0.206
C4G C65G | 0.178
C4G C65U | 0.224

Variant | self-cleavage
C4G A39U | 0.123
C4U U70A | 0.299
C4U U70C | 0.341
C4A G69A | 0.141
U5A G13C | 0.19
U5A G13U | 0.302
C4A G57U | 0.169
U5A U53A | 0.221
U5A U53C | 0.452
C4U C10A | 0.177
U5C U20A | 0.532
C4U A22U | 0.362
C4U A44G | 0.269
U5A A11C | 0.281
U5C A11C | 0.764
C4U A28G | 0.458
C4U A41G | 0.299
U5A G57U | 0.102
U5A U60C | 0.709
U5A U60A | 0.477
U5A U14C | 0.343
U5C U14G | 0.385
U5C U14C | 0.557
C4U C12U | 0.357

Variant | self-cleavage
C4G U58G | 0.241
C4G U9A | 0.162
C4G U33C | 0.0651
C4G U33G | 0.13
C4U U5A | 0.0527
U5C U55G | 0.351
C4U U52C | 0.481
C4U U52G | 0.209
U5C C12U | 0.772
C4U U58A | 0.172
C4U U55A | 0.0732
U5A C12G | 0.266
U5A C12A | 0.273
C4A G51C | 0.261
C4G G57C | 0.143
U5A U62G | 0.11
C4A U60A | 0.197
C4G G29C | 0.0848
U5G A11C | 0.175
C4U A26G | 0.221
U5C A59C | 0.105
U5C A43G | 0.201
U5G A24G | 0.331
C4G G54U | 0.228

Variant | self-cleavage
U5G A35C | 0.254
U5G A35G | 0.36
C4U G27C | 0.229
C4U G27U | 0.118
C4G G25C | 0.157
C4U C16U | 0.362
U5A A36G | 0.427
C4U A24C | 0.33
C4U A24G | 0.272
C4G U5G | 0.0498
C4G U5A | 0.203
U5A C37G | 0.18
C4U A30C | 0.104
C4U A30G | 0.128
C4G A71C | 0.483
U5C A26U | 0.505
C4G G21A | 0.0893
C4G U52C | 0.174
C4A U20G | 0.259
U5C C65A | 0.511
U5A C16G | 0.231
U5A C16A | 0.281
U5A C16U | 0.475
C4A U7G | 0.221

Variant | self-cleavage
C4U U20G | 0.213
C4G G68U | 0.0845
C4G G68C | 0.134
U5A G51A | 0.393
C4U G69U | 0.177
C4U U62G | 0.181
C4U U62C | 0.16
U5C G17U | 0.794
U5C G17A | 0.644
U5C C37A | 0.178
C4G C38A | 0.0909
U5A U63C | 0.196
U5A U63A | 0.206
C4G A61C | 0.164
C4G A61U | 0.0796
C4G A61G | 0.098
U5C A49U | 0.143
U5C G27C | 0.15
U5C G27U | 0.0794
C4G U55G | 0.113
C4U C66A | 0.182
C4U C66G | 0.217
U5A C50U | 0.291
C4U C46A | 0.164

Variant | self-cleavage
C4U C46G | 0.121
C4G A44C | 0.136
U5C U67C | 0.144
C4U U53G | 0.412
C4U G42A | 0.27
U5C A23C | 0.692
U5C A23G | 0.683
C4G G51C | 0.207
C4G G51U | 0.223
U5A U8A | 0.285
U5A U8C | 0.141
U5A U8G | 0.261
C4G U20A | 0.225
U5C A47U | 0.166
U5C A47C | 0.208
C4U A64U | 0.205
C4U A11G | 0.425
C4U A11U | 0.256
U5A G32A | 0.158
U5A C46U | 0.0644
U5A C46A | 0.16
U5A C6A | 0.337
U5C U33G | 0.208
U5C U33A | 0.149

Variant | self-cleavage
U5C U33C | 0.0316
C4U G54C | 0.364
C4U G54A | 0.166
U5C C18A | 0.699
U5C C18G | 0.251
C4U A39U | 0.188
U5C C46U | 0.023
U5C A61C | 0.128
U5C A61G | 0.176
U5C G19A | 0.422
U5C A35U | 0.0604
U5C A35C | 0.732
U5C G29A | 0.106
C4A G42A | 0.111
C4A U14G | 0.0473
C4A U14C | 0.115
U5C A24C | 0.483
U5C A24G | 0.453
U5C C66G | 0.113
U5C C66U | 0.38
U5C G56A | 0.107
U5C G56U | 0.128
